Test results reported in the supplement of paper PMC7877785.
± gives the uncertainty stated by the source.

Test: self-splicing fitness, log relative to wild type (ln ratio); higher = more splicing; Tetrahymena group I intron in knt gene, E. coli kanamycin selection, DiMSum; sequences stand for … in CUCUCU…GGAGGGAAAAGUUAUCAGGCAUGCACCUGGUAGCUAGUCUUUAAACCAAUAGAUUGCAUCGGUUUAAAAGGCAAGACCGUCAAAUUGCGGGAAAGGGGUCAACAGCCGUUCAGUACCAAGUCUCAGGGGAAACUUUGAGAUGGCCUUGCAAAGGGUAUGGUAAUAAGCUGACGGACAUGGUCCUAACCACGCAGCCAAGUCCUAAGUCAACAGAUCUUCUGUUGAUAUGGAUGCAGUUCACAGACUAAAUGUCGGUCGGGGAAGAUGUAUUCUUCUCAUAAGAUAUAGUCGGACCUCUCCUUAAUGGGAGCUAGCGGAUGAAGUGAUGCAACACUGGAGCCGCUGGGAACUAAUUUGUAUGCGAAAGUAUAUUGAUUAGUUUUGGAGUACUCGUGGUCG
Procedure, shortened: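 Six replicate transformations of E. coli BL21(DE3) with a pET-22b(+) library were grown overnight at 37°C or 30°C. The library randomised all eight P1ex-region intron nucleotides, the intron lying in the knt kanamycin-resistance gene, and plates were LB agar with or without 25 μg/mL kanamycin plus 100 μg/mL carbenicillin, 50 μM IPTG and 0.2% rhamnose. Pooled colonies were amplicon-sequenced on an Illumina HiSeq 2500, and fitness is the DiMSum error-weighted combination of wild-type-normalised replicate fold changes, kanamycin versus none.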

## CCAGAGCAAUAUUACGCGAG
30 °C
  self-splicing fitness (ln): -2.77 ± 0.17
37 °C
  self-splicing fitness (ln): -2.36 ± 0.25

## CCAGAGCAAUAUUACGCGUC
30 °C
  self-splicing fitness (ln): -3.45 ± 0.24
37 °C
  self-splicing fitness (ln): -3 ± 0.3

## CCAGAGCAAUAUUACGCUAA
30 °C
  self-splicing fitness (ln): -2.74 ± 0.24
37 °C
  self-splicing fitness (ln): -2.57 ± 0.24

## CCAGAGCAAUAUUACGGGCG
30 °C
  self-splicing fitness (ln): -1.5 ± 0.085
37 °C
  self-splicing fitness (ln): -0.383 ± 0.1

## CCAGAGCAAUAUUACGGGUC
30 °C
  self-splicing fitness (ln): -3.22 ± 0.43
37 °C
  self-splicing fitness (ln): -1.53 ± 0.28

## CCAGAGCAAUAUUACGGUAC
30 °C
  self-splicing fitness (ln): -3.29 ± 0.17
37 °C
  self-splicing fitness (ln): -1.52 ± 0.26

## CCAGAGCAAUAUUACGUAGA
30 °C
  self-splicing fitness (ln): -1.88 ± 0.12
37 °C
  self-splicing fitness (ln): -2.08 ± 0.23

## CCAGAGCAAUAUUACGUGAU
30 °C
  self-splicing fitness (ln): -3.93 ± 0.22
37 °C
  self-splicing fitness (ln): -2.67 ± 0.28

## CCAGAGCAAUAUUACGUGCC
30 °C
  self-splicing fitness (ln): -3.42 ± 0.38
37 °C
  self-splicing fitness (ln): -2.76 ± 0.32

## CCAGAGCAAUAUUACGUUGU
30 °C
  self-splicing fitness (ln): -3.81 ± 0.2
37 °C
  self-splicing fitness (ln): -3 ± 0.26

## CCAUAGCAAUAUUACGACGG
30 °C
  self-splicing fitness (ln): -3.41 ± 0.14
37 °C
  self-splicing fitness (ln): -1.67 ± 0.13

## CCAUAGCAAUAUUACGACGU
30 °C
  self-splicing fitness (ln): -3.3 ± 0.35
37 °C
  self-splicing fitness (ln): -2.13 ± 0.23

## CCAUAGCAAUAUUACGACUU
30 °C
  self-splicing fitness (ln): -2.46 ± 0.17
37 °C
  self-splicing fitness (ln): -3.03 ± 0.32

## CCAUAGCAAUAUUACGAGCU
30 °C
  self-splicing fitness (ln): -3.04 ± 0.36
37 °C
  self-splicing fitness (ln): -2.9 ± 0.47

## CCAUAGCAAUAUUACGAGGC
30 °C
  self-splicing fitness (ln): -3.03 ± 0.15
37 °C
  self-splicing fitness (ln): -3.27 ± 0.21

## CCAUAGCAAUAUUACGCAAG
30 °C
  self-splicing fitness (ln): -2.84 ± 0.17
37 °C
  self-splicing fitness (ln): -0.562 ± 0.13

## CCAUAGCAAUAUUACGCAGC
37 °C
  self-splicing fitness (ln): -3.34 ± 0.42

## CCAUAGCAAUAUUACGCCAC
37 °C
  self-splicing fitness (ln): -1.75 ± 0.49

## CCAUAGCAAUAUUACGCCAG
30 °C
  self-splicing fitness (ln): -1.94 ± 0.14
37 °C
  self-splicing fitness (ln): -0.423 ± 0.14

## CCAUAGCAAUAUUACGCCAU
30 °C
  self-splicing fitness (ln): -4.18 ± 0.31
37 °C
  self-splicing fitness (ln): -2.41 ± 0.25

## CCAUAGCAAUAUUACGCCUC
30 °C
  self-splicing fitness (ln): -3.21 ± 0.4
37 °C
  self-splicing fitness (ln): -1.74 ± 0.29

## CCAUAGCAAUAUUACGCCUU
30 °C
  self-splicing fitness (ln): -3.13 ± 0.22
37 °C
  self-splicing fitness (ln): -3.02 ± 0.22

## CCAUAGCAAUAUUACGCGUA
30 °C
  self-splicing fitness (ln): -3.19 ± 0.4
37 °C
  self-splicing fitness (ln): -2.75 ± 0.41

## CCAUAGCAAUAUUACGCUCA
30 °C
  self-splicing fitness (ln): -3.11 ± 0.18
37 °C
  self-splicing fitness (ln): -2.16 ± 0.25

## CCAUAGCAAUAUUACGGACU
30 °C
  self-splicing fitness (ln): -3.84 ± 0.33
37 °C
  self-splicing fitness (ln): -1.85 ± 0.29

## CCAUAGCAAUAUUACGGCCC
30 °C
  self-splicing fitness (ln): -1.72 ± 0.22

## CCAUAGCAAUAUUACGGCCG
30 °C
  self-splicing fitness (ln): -0.548 ± 0.098
37 °C
  self-splicing fitness (ln): -0.739 ± 0.12

## CCAUAGCAAUAUUACGGCUC
30 °C
  self-splicing fitness (ln): -2.85 ± 0.36
37 °C
  self-splicing fitness (ln): -2.59 ± 0.45

## CCAUAGCAAUAUUACGGGCA
30 °C
  self-splicing fitness (ln): -3.32 ± 0.26
37 °C
  self-splicing fitness (ln): -2.95 ± 0.29

## CCAUAGCAAUAUUACGGGGG
30 °C
  self-splicing fitness (ln): -3.01 ± 0.16
37 °C
  self-splicing fitness (ln): -3.36 ± 0.31

## CCAUAGCAAUAUUACGUAGG
30 °C
  self-splicing fitness (ln): -2.29 ± 0.078
37 °C
  self-splicing fitness (ln): -1.37 ± 0.094

## CCAUAGCAAUAUUACGUCGA
30 °C
  self-splicing fitness (ln): -3.03 ± 0.28
37 °C
  self-splicing fitness (ln): -2.2 ± 0.27

## CCCAAGCAAUAUUACGAGAU
30 °C
  self-splicing fitness (ln): -2.91 ± 0.14
37 °C
  self-splicing fitness (ln): -3.31 ± 0.21

## CCCAAGCAAUAUUACGAGUU
30 °C
  self-splicing fitness (ln): -3.89 ± 0.14
37 °C
  self-splicing fitness (ln): -2.68 ± 0.14

## CCCAAGCAAUAUUACGCCAU
30 °C
  self-splicing fitness (ln): -3.28 ± 0.22
37 °C
  self-splicing fitness (ln): -2.5 ± 0.23

## CCCAAGCAAUAUUACGCCCU
30 °C
  self-splicing fitness (ln): -3.14 ± 0.43

## CCCAAGCAAUAUUACGCGAA
30 °C
  self-splicing fitness (ln): -3.55 ± 0.15
37 °C
  self-splicing fitness (ln): -2.63 ± 0.17

## CCCAAGCAAUAUUACGCGCA
30 °C
  self-splicing fitness (ln): -4.14 ± 0.35
37 °C
  self-splicing fitness (ln): -2.72 ± 0.21

## CCCAAGCAAUAUUACGCGCU
30 °C
  self-splicing fitness (ln): -3.79 ± 0.34
37 °C
  self-splicing fitness (ln): -1.91 ± 0.25

## CCCAAGCAAUAUUACGCUAG
30 °C
  self-splicing fitness (ln): -2.63 ± 0.19
37 °C
  self-splicing fitness (ln): -2.72 ± 0.31

## CCCAAGCAAUAUUACGCUGC
30 °C
  self-splicing fitness (ln): -2.44 ± 0.2
37 °C
  self-splicing fitness (ln): -2.43 ± 0.41

## CCCAAGCAAUAUUACGCUGG
30 °C
  self-splicing fitness (ln): -3.55 ± 0.19
37 °C
  self-splicing fitness (ln): -2.52 ± 0.19

## CCCAAGCAAUAUUACGGCCC
30 °C
  self-splicing fitness (ln): -2.39 ± 0.47

## CCCAAGCAAUAUUACGGCCG
30 °C
  self-splicing fitness (ln): -2.73 ± 0.19
37 °C
  self-splicing fitness (ln): -2.43 ± 0.21

## CCCAAGCAAUAUUACGGCUG
30 °C
  self-splicing fitness (ln): -4.22 ± 0.23
37 °C
  self-splicing fitness (ln): -2.69 ± 0.16

## CCCAAGCAAUAUUACGGGUA
30 °C
  self-splicing fitness (ln): -4.37 ± 0.28
37 °C
  self-splicing fitness (ln): -2.81 ± 0.16

## CCCAAGCAAUAUUACGGUAU
30 °C
  self-splicing fitness (ln): -4.33 ± 0.23
37 °C
  self-splicing fitness (ln): -2.51 ± 0.21

## CCCAAGCAAUAUUACGUACC
37 °C
  self-splicing fitness (ln): -1.82 ± 0.28

## CCCAAGCAAUAUUACGUAGG
30 °C
  self-splicing fitness (ln): -2.17 ± 0.067
37 °C
  self-splicing fitness (ln): -1.56 ± 0.082

## CCCAAGCAAUAUUACGUCGA
30 °C
  self-splicing fitness (ln): -3.92 ± 0.26
37 °C
  self-splicing fitness (ln): -2.81 ± 0.2
